Assay results taken from patent US7105641.

Experiments:
[1] = target: MCP-1RB (monocyte chemoattractant protein-1 receptor B) (human) (UniProt P41597); assay: cell-based or functional assay
[2] = target: MIP-1α/RANTES receptor (Homo sapiens (Human)) (UniProt P32246); assay: cell-based or functional assay
MIP-1α/RANTES receptor (Homo sapiens (Human)), sequence (P32246 whole entry): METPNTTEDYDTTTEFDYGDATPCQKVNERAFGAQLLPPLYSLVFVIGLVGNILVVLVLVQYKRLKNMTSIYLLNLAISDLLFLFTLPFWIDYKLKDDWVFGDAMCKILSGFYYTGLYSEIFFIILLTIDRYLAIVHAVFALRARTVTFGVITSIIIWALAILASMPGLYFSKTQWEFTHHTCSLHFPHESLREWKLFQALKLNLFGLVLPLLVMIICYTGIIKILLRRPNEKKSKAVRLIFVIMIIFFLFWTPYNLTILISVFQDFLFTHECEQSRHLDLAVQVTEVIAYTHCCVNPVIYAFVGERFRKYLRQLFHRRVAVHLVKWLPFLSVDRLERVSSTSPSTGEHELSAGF

MCP-1RB (monocyte chemoattractant protein-1 receptor B) (human), sequence (P41597 other isoform, or with tags, fused parts or gaps): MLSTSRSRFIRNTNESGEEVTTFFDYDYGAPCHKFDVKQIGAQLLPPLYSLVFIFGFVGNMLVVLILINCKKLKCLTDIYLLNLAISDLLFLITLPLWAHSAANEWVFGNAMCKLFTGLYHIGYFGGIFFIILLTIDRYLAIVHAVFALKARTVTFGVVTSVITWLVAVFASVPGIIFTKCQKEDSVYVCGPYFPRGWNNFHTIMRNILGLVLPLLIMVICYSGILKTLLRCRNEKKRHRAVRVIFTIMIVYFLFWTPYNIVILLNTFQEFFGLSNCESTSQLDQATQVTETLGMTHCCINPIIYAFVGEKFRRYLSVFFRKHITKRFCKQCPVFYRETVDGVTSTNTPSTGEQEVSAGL

## RANTES (from UniProt P13501 24-91) (ligand)
[1]
  IC50(nM), Inhibition of Adenylyl Cyclase: > 1000 nM

## MIP-1β (from UniProt P13236 24-92) (ligand)
[1]
  IC50(nM), Inhibition of Adenylyl Cyclase: > 1000 nM

## MIP-1α (from UniProt P10147 27-92) (ligand)
[1]
  IC50(nM), Inhibition of Adenylyl Cyclase: > 1000 nM

## IL-8 (interleukin-8) (from UniProt P10145 28-99) (ligand)
[1]
  IC50(nM), Inhibition of Adenylyl Cyclase: > 1000 nM

## Gro-α (from UniProt P09341 35-107) (ligand)
[1]
  IC50(nM), Inhibition of Adenylyl Cyclase: > 1000 nM
[2]
  IC50(nM), Inhibition of Adenylyl Cyclase: > 1000 nM
